Results on seven molecules are retold here after US20180339057A1 (Novo Nordisk, published 2018).

One may read the IC50 as the point on the concentration scale where inhibition reaches its midpoint. A lower IC50 goes with greater potency.

For assay [1], the target named is T1, human MIC-1 receptor (hGFRAL, GDNF family receptor alpha like), full length (human, UniProt Q6UXV0 19-394).
T1 construct: whole, on cells
T1 sequence (looked up): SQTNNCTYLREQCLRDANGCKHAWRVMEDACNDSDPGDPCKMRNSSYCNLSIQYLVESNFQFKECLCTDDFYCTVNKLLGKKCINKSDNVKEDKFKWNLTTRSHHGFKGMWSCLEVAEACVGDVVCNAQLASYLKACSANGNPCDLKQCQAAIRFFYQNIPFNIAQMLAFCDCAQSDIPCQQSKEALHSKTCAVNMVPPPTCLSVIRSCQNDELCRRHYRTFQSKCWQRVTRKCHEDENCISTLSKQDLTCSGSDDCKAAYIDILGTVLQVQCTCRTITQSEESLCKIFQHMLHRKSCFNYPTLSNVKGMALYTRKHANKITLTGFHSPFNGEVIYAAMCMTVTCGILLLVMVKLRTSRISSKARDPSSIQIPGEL
Briefly: SPA: displacement of 50 pM human [125I]-MIC-1 from BHK21-hGFRAL-IRES-hRET cell membranes. The protocol:
Binding potencies of MIC-1 compounds were calculated by IC50 of displacement curves.
BHK21-hGFRAL-IRES-hRET cells were cultured at +37° C. in a humidified atmosphere with 5% CO₂ in complete medium consisting of DMEM with high glucose and sodium pyrovate, heat inactivated 10% Fetal Bovine Serum, 1% Penicillin-Streptomycin, 1 mg/ml G418-Geneticin and 400 ug/ml Hygromycin. Cells were washed twice in ice cold Dulbecco's phosphate-buffered saline (DPBS) and detached mechanically by scraping, transferred in ice cold DPBS into conical centrifuge tubes and centrifuged for 5 min at 1500 rpm at +20° C. Cell pellet was resuspended in a total amount of 10 ml ice cold homogenization buffer A (50 mM Tris, 2.5 mM EDTA, adjust pH7.4 with one EDTA-free protease inhibitor cocktail tablet/50 ml) and homogenized for 20 seconds. The homogenate was centrifuged at 16000 rpm in 20 minutes at +4° C. The supernatant was discarded and the pellet was reconstituted in 10 ml homogenization buffer B (50 mM Tris, 320 mM Sucrose, adjust pH 7.4 with one EDTA-free protease inhibitor cocktail tablet/50 ml) and homogenized for 20 seconds and centrifuged at 16000 rpm in 20 minutes at +4° C. This procedure was repeated one more time. The supernatant was discarded and the pellet was reconstituted in 3 ml homogenization buffer B and homogenized for 10 seconds at low speed. Protein concentration was determined by standard Bradford method and 1.5 mg protein/tube was aliquoted to cryotubes and stored at −80° C. Binding assays were performed in white 96-well plates in a total volume of 200 μl per well. Wheat germ agglutinin SPA beads were reconstituted in assay buffer (50 mM Tris/HCl, 4.5 mM MgCl₂, 0.02% Tween 20 and 0.25% Ovalbumin pH 7.4) and mixed with membrane preparation to give a final concentration of 0.5 mg SPA beads and 10 μg total protein per well. […] The plate was sealed and incubated at +22° C. for 2 hours in a plate shaker set at 350 rpm and thereafter centrifuged at 1500 rpm for 10 minutes prior to reading of SPA bead light emission.

For assay [2], the target named is T1, human MIC-1 receptor (hGFRAL, GDNF …). Kind of assay: cell-based or functional assay.
Assay [3] has the same target. Briefly: cell-based or functional assay. This is another data set of the same source.

B1: SEPATSGSETPGTSESATPESGPGTSTEPCEG-MIC-1, des-N3, M57L, M86L (Cys mutation S(-3)C) (ligand)
chain: SEPATSGSETPGTSESATPESGPGTSTEPCEGARGDHCPLGPGRCCRLHTVRASLEDLGWADWVLSPREVQVTMCIGACPSQFRAANLHAQIKTSLHRLKPDTVPAPCCVPASYNPLVLIQKTDTGVSLQTYDDLLAKDCHCI
notes: homodimer; no protractor
B1 showed an IC50 in assay [1] of 83 nM. In assay [2], the “Luciferase + 0.1% HSA NNDK EC50 (pM)” value is 243 pM and the “Luciferase NNDK EC50 (pM)” value came to 217 pM.

B2: Compound 10 (ligand)
chain: SEPATSGSETPGTSESATPESGPGTSTEPSEGARGDHCPLGPGRCCRLHTVRASLEDLGWADWVLSPREVQVTMCIGACPSQFRAANLHAQIKTSLHRLKPDTVPAPCCVPASYNPLVLIQKTDTGVSLQTYDDLLAKDCHCI
modifications: alpha-amino group of the N-terminal Ser-32 (residue 1 of SEQ ID NO: 164): N-[4-[[[2-[2-[2-[[2-[2-[2-[[(4S)-4-carboxy-4-(17-carboxyheptadecanoylamino)butanoyl]amino]ethoxy]ethoxy]acetyl]amino]ethoxy]ethoxy]acetyl]amino]methyl]phenyl]methyl (protractor of Example 10.1)
notes: homodimer with one protractor on each of the two N-terminal extensions; also called Formula A (C18)
B2: in assay [1], the IC50 was found to be 20 nM. Besides, in assay [2], the “Luciferase + 0.1% HSA NNDK EC50 (pM)” value was 146 pM and the “Luciferase NNDK EC50 (pM)” value worked out at 71 pM.

B3: Compound 15 (ligand)
chain 1: SEPATSGSETPGTSESATPESGPGTSTEPSEGARGDHCPLGPGRCCRLHTVRASLEDLGWADWVLSPREVQVTMCIGACPSQFRAANLHAQIKTSLHRLRPDTVPAPCCVPASYNPLVLIQRTDTGVSLQTYDDLLARDCHCI
chain 2: SEPATSGSETPGTSESATPESGPGTSTEPSEGARGDHCPLGPGRCCRLHTVRASLEDLGWADWVLSPREVQVTMCIGACPSQFRAANLHAQIKTSLHRLRPDTVPAPCCVPASYNPLVLIQRTDTGVSLQTYDDLLARDCHCI
modifications: alpha-amino group of the N-terminal Ser-32 (residue 1 of SEQ ID NO: 312): N-[4-[[[2-[2-[2-[[2-[2-[2-[[(4S)-4-carboxy-4-(17-carboxyheptadecanoylamino)butanoyl]amino]ethoxy]ethoxy]acetyl]amino]ethoxy]ethoxy]acetyl]amino]methyl]phenyl]methyl (protractor of Example 10.1)
notes: also called monoalkylated
Take B3: the IC50 in assay [1] was 39 nM. Also, in assay [2], the “Luciferase + 0.1% HSA NNDK EC50 (pM)” value is 39 pM and the “Luciferase NNDK EC50 (pM)” value is 61 pM.

B4: SEPCTSGSETPGTSESATPESGPGTSTEPSEG-MIC-1, des-N3 (Cys mutation A(-29)C) (ligand)
chain: SEPCTSGSETPGTSESATPESGPGTSTEPSEGARGDHCPLGPGRCCRLHTVRASLEDLGWADWVLSPREVQVTMCIGACPSQFRAANMHAQIKTSLHRLKPDTVPAPCCVPASYNPMVLIQKTDTGVSLQTYDDLLAKDCHCI
notes: homodimer; no protractor
For the molecule B4, in assay [1], the IC50 was determined as 6.7 nM. In assay [2], the “Luciferase + 0.1% HSA NNDK EC50 (pM)” value amounted to 47 pM and the “Luciferase NNDK EC50 (pM)” value turned out to be 70 pM.

B5: SEPCTSGSETPGTSESATPESGPGTSTEPSEG-MIC-1, des-N3, M57L, M86L (Cys mutation A(-29)C) (ligand)
chain: SEPCTSGSETPGTSESATPESGPGTSTEPSEGARGDHCPLGPGRCCRLHTVRASLEDLGWADWVLSPREVQVTMCIGACPSQFRAANLHAQIKTSLHRLKPDTVPAPCCVPASYNPLVLIQKTDTGVSLQTYDDLLAKDCHCI
notes: homodimer; no protractor
On to B5, for which, in assay [1], the IC50 was found to be 80 nM. In assay [2], the “Luciferase + 0.1% HSA NNDK EC50 (pM)” value amounted to 75 pM and the “Luciferase NNDK EC50 (pM)” value is 100 pM.

B6: SEPATSGSETPGTSESATPESGPGTSTEPSEG-MIC-1, del-N3, M57L, M86L, K69R, K107R, K91R (ligand)
chain: SEPATSGSETPGTSESATPESGPGTSTEPSEGARGDHCPLGPGRCCRLHTVRASLEDLGWADWVLSPREVQVTMCIGACPSQFRAANLHAQIKTSLHRLRPDTVPAPCCVPASYNPLVLIQRTDTGVSLQTYDDLLARDCHCI
notes: homodimer; no protractor
In assay [1], B6 showed an IC50 of 116 nM. In assay [2], the “Luciferase + 0.1% HSA NNDK EC50 (pM)” value is 35 pM and the “Luciferase NNDK EC50 (pM)” value is 42 pM.

B7: Macrophage Inhibitory Cytokine-1 (MIC-1), human wild type, monomer sequence SEQ ID NO:1 (ligand)
chain: ARNGDHCPLGPGRCCRLHTVRASLEDLGWADWVLSPREVQVTMCIGACPSQFRAANMHAQIKTSLHRLKPDTVPAPCCVPASYNPMVLIQKTDTGVSLQTYDDLLAKDCHCI
notes: covalently linked homodimer; 112 amino acid monomer = residues 197-308 of the precursor; also called wtMIC-1
Consider B7, for which the IC50 in assay [1] was 0.67 nM. In assay [3], the “Emax (%)” value was 100% and the “pERK EC50 (nM)” value came out at 0.3 nM. In assay [2], the “Luciferase + 0.1% HSA NNDK EC50 (pM)” value was 36 pM and the “Luciferase NNDK EC50 (pM)” value turned out to be 59 pM.
